Test results published in patent US9274110B2, “Diagnosis method of active tuberculosis” (priority 2011, dated 2016).

Settings: cell wall of M. smegmatis overexpressing LipY vs control mycobacteria; 0.5 mM substrate, 40 min, 35° C.

B1: LipY: triacylglycerol hydrolase LipY (Rv3097c) of Mycobacterium tuberculosis, SEQ ID NO: 3 (protein, listed as Mycobacterium tuberculosis)
chain: PEVVFIHGSVVSYVVALPEVMSAAATDVASIGSVVATASQGVAGATTTVLAAAEDEVSAAIAALFSGHGQDYQALSAQLAVFHERFVQALTGAAKGYAAAELANASLLQSEFASGIGNGFATIHQEIQRAPTALAAGFTQVPPFAAAQAGIFTGTPSGAAGFDIASLWPVKPLLSLSALETHFAIPNNPLLALIASDIPPLSWFLGNSPPPLLNSLLGQTVQYTTYDGMSVVQITPAHPTGEYVVAIHGGAFILPPSIFHWLNYSVTAYQTGATVQVPIYPLVQEGGTAGTVVPAMAGLISTQIAQHGVSNVSVVGDSAGGNLALAAAQYMVSQGNPVPSSMVLLSPWLDVGTWQISQAWAGNLAVNDPLVSPLYGSLNGLPPTYVYSGSLDPLAQQAVVLEHTAVVQGAPFSFVLAPWQIHDWILLTPWGLLSWPQINQQLGIAASDIHHHHHH
With B1 the “Lipase activity: degradation of para-Nitrophenyl stearate, absorbance at 405 nm” value was “demonstrating the lipase activity”.
